Biological target: T1, ERCAT-MBP (ERECTA kinase domain fused to maltose binding protein, kinase-active) (Arabidopsis, UniProt Q42371 611-976)
T1 construct: Expressed in E. coli from pMAL-c2 and purified on amylose resin; dot-blotted on nitrocellulose
T1 sequence: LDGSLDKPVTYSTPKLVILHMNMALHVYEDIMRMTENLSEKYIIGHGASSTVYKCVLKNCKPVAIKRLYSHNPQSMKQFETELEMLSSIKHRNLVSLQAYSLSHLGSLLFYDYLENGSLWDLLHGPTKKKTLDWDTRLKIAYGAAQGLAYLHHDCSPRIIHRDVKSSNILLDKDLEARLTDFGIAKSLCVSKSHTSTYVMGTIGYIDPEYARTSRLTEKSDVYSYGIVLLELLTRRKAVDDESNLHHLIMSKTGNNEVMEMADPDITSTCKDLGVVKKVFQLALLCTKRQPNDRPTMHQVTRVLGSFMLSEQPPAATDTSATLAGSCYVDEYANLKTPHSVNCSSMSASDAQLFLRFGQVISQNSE
Experiment: far-western dot blot with 32P-labelled GST-KID
From the text: Far-Western Analysis of the ERECTA-KAPP Interaction: For protein-protein interaction (far-western) blot analysis, the kinase domains of ERECTA and RLK5 were expressed as MBP fusions. The ERECTA kinase domain (corresponding to amino acids 611 to 977) was amplified from cDNA using the primers ERK4 (5′ […] 3′, SEQ ID NO:34) and ER3rc (5′ […] 3′, SEQ ID NO:35). The amplified fragment was digested with EcoRI and BamHI and introduced into pSP73-delta-AatII to generate pKUT503. […] The first round of PCR was performed with the primer pairs ERK4 and ERK13/K676E (5′ […] 3′, SEQ ID NO:36) and ERKI5/K676E (5′ […] 3′, SEQ ID NO:37) and ERCodeC3 (5′ […] 3′, SEQ ID NO:38). In the next round, products from both reactions were mixed and amplified with ERK4 and ERCodeC3. The amplified fragment was digested with EcoRI and BamHI and introduced into the plasmid pSP73-delta-AatII to generate pKUT536. The EcoRI-SalI fragments of both pKUT503 and pKUT536 were cloned into pMAL-c2 (New England Biolabs). The plasmids RLK5CAT-MBP, RLK5CAT(K711E)MBP, and GST-KID 134 were generous gifts from John Walker (University of Missouri, Columbia). […] Protein concentrations were determined with Bio-Rad Protein Assay Solution. […]

B1: GST-KID (kinase interaction domain of Kinase-Associated Protein Phosphatase, KAPP, fused to glutathione S-transferase) (other, UniProt P46014 180-313, looked up)
chain: SWLFLEVIAGPAIGLQHAVNSTSSSKLPVKLGRVSPSDLALKDSEVSGKHAQITWNSTKFKWELVDMGSLNGTLVNSHSISHPDLGSRKWGNPVELASDDIITLGTTTKVYVRISSQNEFQIPFKIGVASDPMA
modifications: labeled with 32P
notes: Plasmid was a gift (John Walker); expressed in E. coli, purified on glutathione-Sepharose, 32P-labelled and used as the probe in the far-western dot blot; also called KAPP KID; radiolabeled KID protein; not shown: glutathione S-transferase (GST) fusion partner
B1: no binding (tested: One milligram blotted).
